Experiments:
Assay in all cases: holdup assay
Set-up in all cases: key: below the threshold = too weak to quantify, mostly under pKd 3.1 to 4
PDLIM4, P50479 = target: PDLIM4, P50479
PDZD2_3, O15018 = target: T1, PDZD2_3, O15018
T1 sequence (O15018 581-682, limits assumed, looked up): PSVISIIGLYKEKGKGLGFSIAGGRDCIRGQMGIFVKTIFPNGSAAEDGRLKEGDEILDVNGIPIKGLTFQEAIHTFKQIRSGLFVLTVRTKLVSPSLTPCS

PTPN13_4, Q12923 = target: T2, PTPN13_4, Q12923
T2 sequence (Q12923 1783-1878, limits assumed, looked up): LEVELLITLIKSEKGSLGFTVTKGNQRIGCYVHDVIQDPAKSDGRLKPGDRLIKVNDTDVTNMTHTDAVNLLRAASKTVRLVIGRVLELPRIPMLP

SHROOM4, Q9ULL8 = target: T3, SHROOM4, Q9ULL8
T3 sequence (Q9ULL8 5-102, limits assumed, looked up): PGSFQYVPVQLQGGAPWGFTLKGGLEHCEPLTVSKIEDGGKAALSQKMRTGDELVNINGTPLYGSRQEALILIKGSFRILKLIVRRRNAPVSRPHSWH

PTPN13_5, Q12923 = target: T4, PTPN13_5, Q12923
T4 sequence (Q12923 1877-1975, limits assumed, looked up): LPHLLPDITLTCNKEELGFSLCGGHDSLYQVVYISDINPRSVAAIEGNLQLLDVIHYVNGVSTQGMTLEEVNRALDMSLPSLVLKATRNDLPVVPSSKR

TJP3_1, O95049 = target: T5, TJP3_1, O95049
T5 sequence (O95049 6-103, limits assumed, looked up): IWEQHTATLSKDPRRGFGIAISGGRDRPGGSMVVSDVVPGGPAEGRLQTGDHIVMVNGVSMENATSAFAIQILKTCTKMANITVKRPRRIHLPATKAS

NHERF4_3, Q86UT5 = target: NHERF4_3, Q86UT5
Chain of NHERF4_3, Q86UT5 (Q86UT5 325-412): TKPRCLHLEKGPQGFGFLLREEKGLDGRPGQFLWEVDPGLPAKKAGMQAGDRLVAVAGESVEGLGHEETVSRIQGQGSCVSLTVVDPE

APBA3_2, O96018 = target: T6, APBA3_2, O96018
T6 sequence (O96018 480-570, limits assumed, looked up): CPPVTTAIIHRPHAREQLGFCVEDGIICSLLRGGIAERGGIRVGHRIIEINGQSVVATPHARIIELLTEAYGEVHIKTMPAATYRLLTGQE

PDZD7_2, Q9H5P4 = target: T7, PDZD7_2, Q9H5P4
T7 sequence (Q9H5P4 205-303, limits assumed, looked up): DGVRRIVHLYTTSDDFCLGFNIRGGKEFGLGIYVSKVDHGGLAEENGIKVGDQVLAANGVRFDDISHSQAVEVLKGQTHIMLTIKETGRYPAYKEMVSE

PARD3B_3, Q8TEW8 = target: PARD3B_3, Q8TEW8
Chain of PARD3B_3, Q8TEW8 (Q8TEW8 490-594): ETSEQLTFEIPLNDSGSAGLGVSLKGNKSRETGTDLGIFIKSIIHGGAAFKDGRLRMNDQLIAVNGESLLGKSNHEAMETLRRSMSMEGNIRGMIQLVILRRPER

USH1C_2, Q9Y6N9 = target: T8, USH1C_2, Q9Y6N9
T8 sequence (Q9Y6N9 206-303, limits assumed, looked up): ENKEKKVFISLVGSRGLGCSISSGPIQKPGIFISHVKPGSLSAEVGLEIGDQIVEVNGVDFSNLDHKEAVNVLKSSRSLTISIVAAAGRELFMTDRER

MPDZ_2, O75970 = target: T9, MPDZ_2, O75970
T9 sequence (O75970 252-347, limits assumed, looked up): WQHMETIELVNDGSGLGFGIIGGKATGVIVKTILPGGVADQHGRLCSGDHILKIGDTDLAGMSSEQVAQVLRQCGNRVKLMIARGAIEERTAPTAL

MAGI1_3, Q96QZ7 = target: MAGI1_3, Q96QZ7
Chain of MAGI1_3, Q96QZ7 (Q96QZ7 638-725): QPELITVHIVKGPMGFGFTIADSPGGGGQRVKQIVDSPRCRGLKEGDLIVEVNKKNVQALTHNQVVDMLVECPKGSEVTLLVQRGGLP

RGS3, P49796-9 = target: RGS3, P49796-9
Chain of RGS3, P49796-9 (P49796 other isoform, or with tags, fused parts or gaps): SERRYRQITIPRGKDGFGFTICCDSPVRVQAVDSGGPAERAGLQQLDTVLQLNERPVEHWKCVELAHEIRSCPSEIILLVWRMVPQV

NHERF1_2, O14745 = target: T10, NHERF1_2, O14745
T10 sequence (O14745 149-244, limits assumed, looked up): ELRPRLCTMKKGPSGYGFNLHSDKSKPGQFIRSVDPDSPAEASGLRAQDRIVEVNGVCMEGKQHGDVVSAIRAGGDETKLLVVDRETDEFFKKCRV

CNKSR1, Q969H4 = target: T11, CNKSR1, Q969H4
T11 sequence (Q969H4 191-295, limits assumed, looked up): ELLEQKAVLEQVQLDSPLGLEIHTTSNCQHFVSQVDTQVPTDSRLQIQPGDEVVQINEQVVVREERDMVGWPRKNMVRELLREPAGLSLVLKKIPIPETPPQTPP

O00560 = conditions: plain residues with an end cap or a label only (N-terminal biotin on a linker: ttds)
Q96HC4 = conditions: plain residues with an end cap or a label only (N-terminal biotin on a linker: ttds)
Q5TCQ9 = conditions: plain residues with an end cap or a label only (N-terminal biotin on a linker: ttds)
Q96JB8 = conditions: plain residues with an end cap or a label only (N-terminal biotin on a linker: ttds)
SNTB2, Q13425 = target: T12, SNTB2, Q13425
T12 sequence (Q13425 110-208, limits assumed, looked up): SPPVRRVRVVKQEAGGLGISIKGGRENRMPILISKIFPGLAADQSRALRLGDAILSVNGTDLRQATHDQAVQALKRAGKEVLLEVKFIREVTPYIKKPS

Q6ZWJ1 = conditions: plain residues with an end cap or a label only (N-terminal biotin on a linker: ttds)
Q96FS4 = conditions: plain residues with an end cap or a label only (N-terminal biotin on a linker: ttds)
O15021 = conditions: plain residues with an end cap or a label only (N-terminal biotin on a linker: ttds)
Q96JY6 = conditions: plain residues with an end cap or a label only (N-terminal biotin on a linker: ttds)
Q92614 = conditions: plain residues with an end cap or a label only (N-terminal biotin on a linker: ttds)
[1] = plain residues with an end cap or a label only (N-terminal biotin on a linker: ttds)
[2] = plain residues with an end cap or a label only (N-terminal biotin on a linker: none)

Chain of PDLIM4, P50479 (P50479 1-83): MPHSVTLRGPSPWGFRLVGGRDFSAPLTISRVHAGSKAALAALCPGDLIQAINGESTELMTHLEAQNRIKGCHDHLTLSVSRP

Row | Binder | pKd (PDLIM4, P50479; [1]) | pKd (PDZD2_3, O15018; [1]) | pKd (PTPN13_4, Q12923; [1]) | pKd (SHROOM4, Q9ULL8; [1]) | pKd (PTPN13_5, Q12923; [1]) | pKd (TJP3_1, O95049; [1]) | pKd (NHERF4_3, Q86UT5; [1]) | pKd (APBA3_2, O96018; [1]) | pKd (PDZD7_2, Q9H5P4; [1]) | pKd (PARD3B_3, Q8TEW8; [1]) | pKd (USH1C_2, Q9Y6N9; [1]) | pKd (MPDZ_2, O75970; [1]) | pKd (MAGI1_3, Q96QZ7; [1]) | pKd (RGS3, P49796-9; [1]) | pKd (NHERF1_2, O14745; [1]) | pKd (CNKSR1, Q969H4; [1]) | pKd (Q96JB8) | pKd (SNTB2, Q13425; [1]) | also measured
1 | SEKHFRETEV [HTLV1-TAX1, P03409] | 4.54 | below the threshold | below the threshold | below the threshold | below the threshold | below the threshold | 3.83 | below the threshold | 4.05 | below the threshold | below the threshold | below the threshold | 4.75 | below the threshold | below the threshold | – | – | – | –
2 | HIVEALETDV [PBK, Q96KB5] | below the threshold | below the threshold | below the threshold | below the threshold | below the threshold | below the threshold | below the threshold | below the threshold | below the threshold | below the threshold | below the threshold | below the threshold | 4.43 | below the threshold | below the threshold | below the threshold | below the threshold | 4.87 | pKd (O00560): below the threshold; pKd (Q96HC4): below the threshold; pKd (Q5TCQ9): below the threshold; pKd (Q6ZWJ1): below the threshold; pKd (Q96FS4): below the threshold; pKd (O15021): below the threshold; pKd (Q96JY6): below the threshold
3 | TGDTLEKFVEGL [CBP, Q92793] | below the threshold | below the threshold | – | 3.86 | below the threshold | below the threshold | 3.86 | 3.95 | below the threshold | below the threshold | – | below the threshold | below the threshold | – | 3.96 | – | below the threshold | below the threshold | pKd (Q92614): below the threshold
4 | DEDQHTQITKV [PTEN, P60484] | below the threshold | below the threshold | – | below the threshold | below the threshold | below the threshold | below the threshold | below the threshold | below the threshold | below the threshold | – | below the threshold | 4.5 | – | below the threshold | – | – | below the threshold | –
5 | RRVRKLPSTTL [RPS6KA1, Q15418] | below the threshold | below the threshold | below the threshold | below the threshold | 3.84 | below the threshold | below the threshold | below the threshold | below the threshold | below the threshold | below the threshold | below the threshold | below the threshold | below the threshold | below the threshold | below the threshold | – | – | –
6 | RTRQRNETQV [HPV51-E6, P26554] | below the threshold | 4.22 | below the threshold | below the threshold | below the threshold | below the threshold | below the threshold | below the threshold | below the threshold | below the threshold | below the threshold | below the threshold | below the threshold | below the threshold | below the threshold | 4.44 | below the threshold | below the threshold | pKd (Q92614): below the threshold; pKd (O00560): below the threshold; pKd (Q96HC4): below the threshold; pKd (Q5TCQ9): below the threshold; pKd (Q6ZWJ1): below the threshold; pKd (Q96FS4): below the threshold; pKd (Q96JY6): below the threshold
7 | DSKPPLPPDEWV [MERS-E, K9N5R3] | – | – | – | – | – | – | – | – | – | – | – | – | – | – | – | – | – | – | pKd (PDLIM4, P50479; [2]): 3.83; pKd (CNKSR1, Q969H4; [2]): below the threshold; pKd (PDZD2_3, O15018; [2]): 3.89; pKd (PTPN13_4, Q12923; [2]): 4.11; pKd (SHROOM4, Q9ULL8; [2]): below the threshold; pKd (PTPN13_5, Q12923; [2]): below the threshold; pKd (TJP3_1, O95049; [2]): 4.19; pKd (NHERF4_3, Q86UT5; [2]): below the threshold; pKd (APBA3_2, O96018; [2]): below the threshold; pKd (PDZD7_2, Q9H5P4; [2]): below the threshold; pKd (PARD3B_3, Q8TEW8; [2]): below the threshold; pKd (USH1C_2, Q9Y6N9; [2]): below the threshold; pKd (MPDZ_2, O75970; [2]): below the threshold; pKd (MAGI1_3, Q96QZ7; [2]): below the threshold; pKd (SNTB2, Q13425; [2]): below the threshold; pKd (RGS3, P49796-9; [2]): 4.67; pKd (NHERF1_2, O14745; [2]): below the threshold
